Numbering of substitutions follows the chain as printed. Names and notes keep the numbering of the source.
B1: S1287,89A: PASK mutant, serine residues 1287 and 1289 changed to alanine (protein)
chain: MEDGGLTAFEEDQRCLSQSLPLPVSAEGPAAQTTAEPSRSFSSAHRHLSRRNGLSRLCQSRTALSEDRWSSYCLSSLAAQNICTSKLHCPAAPEHTDPSEPRGSVSCCSLLRGLSSGWSSPLLPAPVCNPNKAIFTVDAKTTEILVANDKACGLLGYSSQDLIGQKLTQFFLRSDSDVVEALSEEHMEADGHAAVVFGTVVDIISRSGEKIPVSVWMKRMRQERRLCCVVVLEPVERVSTWVAFQSDGTVTSCDSLFAHLHGYVSGEDVAGQHITDLIPSVQLPPSGQHIPKNLKIQRSVGRARDGTTFPLSLKLKSQPSSEEATTGEAAPVSGYRASVWVFCTISGLITLLPDGTIHGINHSFALTLFGYGKTELLGKNITFLIPGFYSYMDLAYNSSLQLPDLASCLDVGNESGCGERTLDPWQGQDPAEGGQDPRINVVLAGGHVVPRDEIRKLMESQDIFTGTQTELIAGGQLLSCLSPQPAPGVDNVPEGSLPVHGEQALPKDQQITALGREEPVAIESPGQDLLGESRSEPVDVKPFASCEDSEAPVPAEDGGSDAGMCGLCQKAQLERMGVSGPSGSDLWAGAAVAKPQAKGQLAGGSLLMHCPCYGSEWGLWWRSQDLAPSPSGMAGLSFGTPTLDEPWLGVENDREELQTCLIKEQLSQLSLAGALDVPHAELVPTECQAVTAPVSSCDLGGRDLCGGCTGSSSACYALATDLPGGLEAVEAQEVDVNSFSWNLKELFFSDQTDQTSSNCSCATSELRETPSSLAVGSDPDVGSLQEQGSCVLDDRELLLLTGTCVDLGQGRRFRESCVGHDPTEPLEVCLVSSEHYAASDRESPGHVPSTLDAGPEDTCPSAEEPRLNVQVTSTPVIVMRGAAGLQREIQEGAYSGSCHHRDGLRLSIQFEVRRVELQGPTPLFCCWLVKDLLHSQRDSAARTRLFLASLPGSTHSTAAELTGPSLVEVLRARPWFEEPPKAVELEGLAACEGEYSQKYSTMSPLGSGAFGFVWTAVDKEKNKEVVVKFIKKEKVLEDCWIEDPKLGKVTLEIAILSRVEHANIIKVLDIFENQGFFQLVMEKHGSGLDLFAFIDRHPRLDEPLASYIFRQLVSAVGYLRLKDIIHRDIKDENIVIAEDFTIKLIDFGSAAYLERGKLFYTFCGTIEYCAPEVLMGNPYRGPELEMWSLGVTLYTLVFEENPFCELEETVEAAIHPPYLVSKELMSLVSGLLQPVPERRTTLEKLVTDPWVTQPVNLADYTWEEVCRVNKPESGVLSAASLEMGNRALADVAQAQELCGGPVPGEAPNGQGCLHPGDPRLLTS
modifications: left off: small tags and cut ends
notes: PASK mutant, serine residues 1287 and 1289 changed to alanine
B2: S1149A: PASK mutant, serine residue 1149 changed to alanine (protein)
chain: B1 chain with S1149A, A1287S, A1289S
modifications: left off: small tags and cut ends
notes: PASK mutant, serine residue 1149 changed to alanine
B3: S1273-1289A: PASK mutant, all five serines simultaneously changed to alanine (protein)
chain: B1 chain with S1273A, S1277A, S1280A
modifications: left off: small tags and cut ends
notes: PASK mutant, all five serines simultaneously changed to alanine
B4: wildtype: His6-tagged human PASK enzyme expressed in baculovirus-infected Sf-9 cells (protein)
chain: B1 chain with A1287S, A1289S
modifications: left off: small tags and cut ends
notes: His6-tagged human PASK enzyme expressed in baculovirus-infected Sf-9 cells
B5: PASK ΔN: truncated human PASK variant lacking both PAS domains, 948 amino-terminal residues removed, His6 tag (protein)
chain: SLPGSTHSTAAELTGPSLVEVLRARPWFEEPPKAVELEGLAACEGEYSQKYSTMSPLGSGAFGFVWTAVDKEKNKEVVVKFIKKEKVLEDCWIEDPKLGKVTLEIAILSRVEHANIIKVLDIFENQGFFQLVMEKHGSGLDLFAFIDRHPRLDEPLASYIFRQLVSAVGYLRLKDIIHRDIKDENIVIAEDFTIKLIDFGSAAYLERGKLFYTFCGTIEYCAPEVLMGNPYRGPELEMWSLGVTLYTLVFEENPFCELEETVEAAIHPPYLVSKELMSLVSGLLQPVPERRTTLEKLVTDPWVTQPVNLADYTWEEVCRVNKPESGVLSAASLEMGNRSLSDVAQAQELCGGPVPGEAPNGQGCLHPGDPRLLTS
modifications: left off: small tags and cut ends
notes: truncated human PASK variant lacking both PAS domains, 948 amino-terminal residues removed, His6 tag

Columns and labels:
Assay in all cases: PASK kinase assay, 32P incorporation into AMARA peptide substrate
AMARA peptide [1] = type: biochemical, human; conditions: Pre-phosphorylated enzyme; for Vmax: peptide substrate; for Km: peptide substrate 0.06–1 mM
Method: (§1) Biochemical properties of the Pask enzyme. A recombinant baculovirus was engineered to overexpress human PASK enzyme in cultured insect cells. The enzyme was expressed as a fusion with a His6 tag at its amino terminus such that the recombinant polypeptide could be purified by Ni-affinity chromatography. Routine enzyme preparations were harvested from 0.8 liter of cultured Sf-9 cells. Cells were lysed by dounce homogenization in 50 mM Tris-HCl, pH 8.0, 100 mM NaCl, 0.04% β-mercaptoethanol (“lysis buffer”) and spun at 100,000×G for one hour to remove insoluble debris. Soluble material (˜50 ml) was then applied to a 3 ml bed volume of Ni-affinity resin. Following application and 50× column volume wash, bound material was eluted with storage buffer (50 mM HEPES, pH 7.4, 100 mM NaCl, 1 mM DTT, 1 mM EDTA) supplemented with 250 mM imidazole. Eluted material was sequentially subjected to Mono-Q, anion-exchange chromatography, and eluted with increasing NaCl concentration. Fractions were evaluated by SDS-PAGE to identify PASK enriched fractions, pooled and dialyzed against storage buffer supplemented with 10% glycerol. Typical enzyme preparations yield 0.5 mg of intact PASK enzyme judged to be greater than 95% pure by visual inspection of Coomassie-stained SDS-PAGE gels.
(§2) Kinetic data were used to characterize the activities of PASK enzyme samples derived without modification from baculovirus and following pre-phosphorylation in the presence of ATP. Enzyme activity was monitored using a synthetic substrate bearing the sequence NH2-[…]-CO2H (AMARA peptide, SEQ ID NO:9). The serine residue in this peptide is known to be phosphorylated by both AMPK and Snf1 [2], both of which are exceedingly similar in primary amino acid sequence to the catalytic domain of PASK. The three arginine residues located at the carboxyl terminus of the AMARA peptide allow avid binding to phosphocellulose paper, thereby facilitating quantitation of ^32P incorporation catalyzed by PASK from [γ-^32P]ATP. […] Moreover, lambda phosphatase treatment generated an enzyme which had 7-fold lower activity than the unmodified enzyme, and this treatment was fully reversible by allowing the enzyme to autophosphorylate in the presence of ATP.
(§3) PASK concentrations (0.5–2 μg/ml) were determined to have linear rates with respect to protein concentration and time. Kinetic constants were determined using peptide substrate concentrations between 0.06–1 mM. The data were fit to a non-linear Michaelis-Menten equation using the GraphPad Prism 2.0 program. Vmax values given are μmol/min/mg. NS indicates an SE less than 0.05.

AMARA peptide [2] = target: T1, AMARA peptide (Homo sapiens, UniProt Q96RG2, F1266C/Y899H); type: biochemical; conditions: Untreated enzyme
T1 construct: Compounds are checked for effects on both full length and truncated versions of PASK; His6 (N); made in house; host or cells: baculovirus-infected Sf-9 insect cells
T1 sequence (Q96RG2 whole entry Y899H/F1266C, the tested form may be a part): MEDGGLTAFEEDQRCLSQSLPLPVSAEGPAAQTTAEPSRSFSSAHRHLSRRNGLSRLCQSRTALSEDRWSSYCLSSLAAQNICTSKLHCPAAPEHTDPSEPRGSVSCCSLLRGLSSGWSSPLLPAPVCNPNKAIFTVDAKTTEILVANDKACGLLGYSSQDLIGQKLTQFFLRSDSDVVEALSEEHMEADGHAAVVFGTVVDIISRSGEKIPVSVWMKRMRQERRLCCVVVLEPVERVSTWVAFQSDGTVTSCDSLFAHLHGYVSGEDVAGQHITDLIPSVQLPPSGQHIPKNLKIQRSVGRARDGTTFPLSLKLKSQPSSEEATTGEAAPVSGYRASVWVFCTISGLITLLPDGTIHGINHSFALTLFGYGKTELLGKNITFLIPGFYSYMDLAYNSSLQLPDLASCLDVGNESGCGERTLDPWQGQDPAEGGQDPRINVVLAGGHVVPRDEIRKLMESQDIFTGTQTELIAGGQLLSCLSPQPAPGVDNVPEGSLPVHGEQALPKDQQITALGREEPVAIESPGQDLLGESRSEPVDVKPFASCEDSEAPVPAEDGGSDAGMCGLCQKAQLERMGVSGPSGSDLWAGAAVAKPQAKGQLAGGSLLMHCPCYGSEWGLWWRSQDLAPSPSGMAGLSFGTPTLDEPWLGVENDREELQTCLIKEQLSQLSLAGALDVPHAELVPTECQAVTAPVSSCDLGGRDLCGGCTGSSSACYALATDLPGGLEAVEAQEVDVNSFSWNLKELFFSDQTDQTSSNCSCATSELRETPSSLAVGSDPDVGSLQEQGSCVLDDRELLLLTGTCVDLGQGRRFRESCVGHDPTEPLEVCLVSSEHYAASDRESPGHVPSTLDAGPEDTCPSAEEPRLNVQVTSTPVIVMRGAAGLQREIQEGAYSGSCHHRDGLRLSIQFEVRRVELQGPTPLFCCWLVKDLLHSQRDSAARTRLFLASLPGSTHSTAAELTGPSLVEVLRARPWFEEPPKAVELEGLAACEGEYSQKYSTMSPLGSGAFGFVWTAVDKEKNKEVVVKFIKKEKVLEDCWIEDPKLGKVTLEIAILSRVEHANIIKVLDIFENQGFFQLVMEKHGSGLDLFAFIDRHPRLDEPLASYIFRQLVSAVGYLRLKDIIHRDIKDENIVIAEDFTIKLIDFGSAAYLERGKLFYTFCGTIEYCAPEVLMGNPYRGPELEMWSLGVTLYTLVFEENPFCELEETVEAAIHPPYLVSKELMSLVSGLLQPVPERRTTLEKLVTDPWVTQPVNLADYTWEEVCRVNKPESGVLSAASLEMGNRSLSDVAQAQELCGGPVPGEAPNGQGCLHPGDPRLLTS
Method: as §1, §2, §3

AMARA peptide [3] = target: T2, AMARA peptide (Homo sapiens, UniProt Q96RG2, F1266C); type: biochemical; conditions: truncated variant vs native enzyme
T2 construct: Compounds are checked for effects on both full length and truncated versions of PASK; His6 (N); made in house; host or cells: baculovirus-infected Sf-9 insect cells
Method: as §1, §2, §3

Molecule	Vmax (AMARA peptide [1]) [µmol/min/mg]	Km (AMARA peptide [1]) [µM]	Vmax (AMARA peptide [2]; peptide substrate) [µmol/min/mg]	Km (AMARA peptide [2]; peptide substrate 0.06–1 mM) [mM]	catalytic rate constant (Vmax) higher than the native enzyme (AMARA peptide [3]) [fold]
B1	0.1	200	–	–	–
B2	0.1	600	–	–	–
B3	0.1	200	–	–	–
B4	0.2	200	0.1	1.3	–
B5	2.8	300	–	–	18
